# Data from publication PMC4570271, “Resolution of structure of PIP5K1A reveals molecular mechanism for its regulation by dimerization and dishevelled” (Nature Communications, 2015).
# T1: GST-tagged DIX domain of mouse DVL1 (residues 1-106) with Y17D (mouse, UniProt P51141 1-106, Y17D)
# T1 construct: DIX domain of mouse DVL1, residues 1-106, Y17D to eliminate DIX aggregation; A longer construct 1-200 (DIX-L) is named in the methods but tied to no experiment; also called DVL DIX; GST-DVL; source: E. coli, purified (glutathione-agarose beads, size-exclusion chromatography)
# T1 sequence (looked up): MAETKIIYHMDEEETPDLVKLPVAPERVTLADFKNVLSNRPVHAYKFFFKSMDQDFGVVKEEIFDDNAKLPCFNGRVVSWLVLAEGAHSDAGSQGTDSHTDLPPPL
# T2: Dix109
# T2 chain: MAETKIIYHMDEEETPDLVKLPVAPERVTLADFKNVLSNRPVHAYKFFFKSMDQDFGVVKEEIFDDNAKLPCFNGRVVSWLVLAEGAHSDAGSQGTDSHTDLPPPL
# B1: zebrafish PIP5K1A kinase catalytic domain, D276A mutant (domain or fragment)
# chain: MASTGETTYKKTTSSALKGAIQLGITHSVGSLSQKPERDVLMQDFEVVESIFFPSQGSSSTPGHHHGDFKFKTYAPIAFRYFREMFGIRPDDYLYSLCNEPLIELSNPGASGSLFYVSSDDEFIIKTVQHKEAEFLQTLLPGYFMNLNQNMRTLLPKFYGLYCVQADGKNIRIVVMNNLLPRAVPMHLKFDLKGSTYKRRASPKERSKGVPTYKDLDFMQDMPEGILLENAHYTALSRTMQRDCRVLQSFKIMDYSLLVGIHILHRAGEEASTAVPDTQKKGQGQKPLYCTAIESIQGESKSKTSPQPYESMGGIPAFNSKGERLLVFIGIIDILQSYRLVKKLEHSWKALLHDGDTVSVHRPSFYADRFQKFMCSTVFRKSQLKTLE
# notes: kinase catalytic domain of zebrafish PIP5K1Aα, residues 49-431; C-terminal 'Leu-Glu' that precedes the His6 tag; source: E. coli BL21-CodonPlus(DE3)-RIL, purified in the same way as the wild-type protein; not shown: His6, C-terminal, kept
# B2: zebrafish PIP5K1A kinase catalytic domain, E149A mutant (domain or fragment)
# chain: MASTGETTYKKTTSSALKGAIQLGITHSVGSLSQKPERDVLMQDFEVVESIFFPSQGSSSTPGHHHGDFKFKTYAPIAFRYFREMFGIRPDDYLYSLCNEPLIALSNPGASGSLFYVSSDDEFIIKTVQHKEAEFLQTLLPGYFMNLNQNMRTLLPKFYGLYCVQADGKNIRIVVMNNLLPRAVPMHLKFDLKGSTYKRRASPKERSKGVPTYKDLDFMQDMPEGILLENDHYTALSRTMQRDCRVLQSFKIMDYSLLVGIHILHRAGEEASTAVPDTQKKGQGQKPLYCTAIESIQGESKSKTSPQPYESMGGIPAFNSKGERLLVFIGIIDILQSYRLVKKLEHSWKALLHDGDTVSVHRPSFYADRFQKFMCSTVFRKSQLKTLE
# notes: as for B1
# B3: zebrafish PIP5K1A kinase catalytic domain, E167A mutant (domain or fragment)
# chain: MASTGETTYKKTTSSALKGAIQLGITHSVGSLSQKPERDVLMQDFEVVESIFFPSQGSSSTPGHHHGDFKFKTYAPIAFRYFREMFGIRPDDYLYSLCNEPLIELSNPGASGSLFYVSSDDAFIIKTVQHKEAEFLQTLLPGYFMNLNQNMRTLLPKFYGLYCVQADGKNIRIVVMNNLLPRAVPMHLKFDLKGSTYKRRASPKERSKGVPTYKDLDFMQDMPEGILLENDHYTALSRTMQRDCRVLQSFKIMDYSLLVGIHILHRAGEEASTAVPDTQKKGQGQKPLYCTAIESIQGESKSKTSPQPYESMGGIPAFNSKGERLLVFIGIIDILQSYRLVKKLEHSWKALLHDGDTVSVHRPSFYADRFQKFMCSTVFRKSQLKTLE
# notes: as for B1
# B4: zebrafish PIP5K1A kinase catalytic domain, L150A mutant (domain or fragment)
# chain: MASTGETTYKKTTSSALKGAIQLGITHSVGSLSQKPERDVLMQDFEVVESIFFPSQGSSSTPGHHHGDFKFKTYAPIAFRYFREMFGIRPDDYLYSLCNEPLIEASNPGASGSLFYVSSDDEFIIKTVQHKEAEFLQTLLPGYFMNLNQNMRTLLPKFYGLYCVQADGKNIRIVVMNNLLPRAVPMHLKFDLKGSTYKRRASPKERSKGVPTYKDLDFMQDMPEGILLENDHYTALSRTMQRDCRVLQSFKIMDYSLLVGIHILHRAGEEASTAVPDTQKKGQGQKPLYCTAIESIQGESKSKTSPQPYESMGGIPAFNSKGERLLVFIGIIDILQSYRLVKKLEHSWKALLHDGDTVSVHRPSFYADRFQKFMCSTVFRKSQLKTLE
# notes: kinase catalytic domain of zebrafish PIP5K1Aα, residues 49-431; C-terminal 'Leu-Glu' that precedes the His6 tag; also called Leu-150 to Ala; source: E. coli BL21-CodonPlus(DE3)-RIL, purified in the same way as the wild-type protein; not shown: His6, C-terminal, kept
# B5: zebrafish PIP5K1A kinase catalytic domain, Y126A mutant (domain or fragment)
# chain: MASTGETTYKKTTSSALKGAIQLGITHSVGSLSQKPERDVLMQDFEVVESIFFPSQGSSSTPGHHHGDFKFKTYAPIAFRAFREMFGIRPDDYLYSLCNEPLIELSNPGASGSLFYVSSDDEFIIKTVQHKEAEFLQTLLPGYFMNLNQNMRTLLPKFYGLYCVQADGKNIRIVVMNNLLPRAVPMHLKFDLKGSTYKRRASPKERSKGVPTYKDLDFMQDMPEGILLENDHYTALSRTMQRDCRVLQSFKIMDYSLLVGIHILHRAGEEASTAVPDTQKKGQGQKPLYCTAIESIQGESKSKTSPQPYESMGGIPAFNSKGERLLVFIGIIDILQSYRLVKKLEHSWKALLHDGDTVSVHRPSFYADRFQKFMCSTVFRKSQLKTLE
# notes: as for B1
# B6: zebrafish PIP5K1A kinase catalytic domain, Y140A mutant (domain or fragment)
# chain: MASTGETTYKKTTSSALKGAIQLGITHSVGSLSQKPERDVLMQDFEVVESIFFPSQGSSSTPGHHHGDFKFKTYAPIAFRYFREMFGIRPDDYLASLCNEPLIELSNPGASGSLFYVSSDDEFIIKTVQHKEAEFLQTLLPGYFMNLNQNMRTLLPKFYGLYCVQADGKNIRIVVMNNLLPRAVPMHLKFDLKGSTYKRRASPKERSKGVPTYKDLDFMQDMPEGILLENDHYTALSRTMQRDCRVLQSFKIMDYSLLVGIHILHRAGEEASTAVPDTQKKGQGQKPLYCTAIESIQGESKSKTSPQPYESMGGIPAFNSKGERLLVFIGIIDILQSYRLVKKLEHSWKALLHDGDTVSVHRPSFYADRFQKFMCSTVFRKSQLKTLE
# notes: kinase catalytic domain of zebrafish PIP5K1Aα, residues 49-431; the residue is printed 'Try-140' in the results and Y140A later; C-terminal 'Leu-Glu' that precedes the His6 tag; also called Try-140 to Ala; source: E. coli BL21-CodonPlus(DE3)-RIL, purified in the same way as the wild-type protein; not shown: His6, C-terminal, kept
# B7: zebrafish PIP5K1A kinase catalytic domain, E82A mutant (domain or fragment)
# chain: MASTGETTYKKTTSSALKGAIQLGITHSVGSLSQKPARDVLMQDFEVVESIFFPSQGSSSTPGHHHGDFKFKTYAPIAFRYFREMFGIRPDDYLYSLCNEPLIELSNPGASGSLFYVSSDDEFIIKTVQHKEAEFLQTLLPGYFMNLNQNMRTLLPKFYGLYCVQADGKNIRIVVMNNLLPRAVPMHLKFDLKGSTYKRRASPKERSKGVPTYKDLDFMQDMPEGILLENDHYTALSRTMQRDCRVLQSFKIMDYSLLVGIHILHRAGEEASTAVPDTQKKGQGQKPLYCTAIESIQGESKSKTSPQPYESMGGIPAFNSKGERLLVFIGIIDILQSYRLVKKLEHSWKALLHDGDTVSVHRPSFYADRFQKFMCSTVFRKSQLKTLE
# notes: as for B1
# B8: zebrafish PIP5K1A kinase catalytic domain, K426A mutant (domain or fragment)
# chain: MASTGETTYKKTTSSALKGAIQLGITHSVGSLSQKPERDVLMQDFEVVESIFFPSQGSSSTPGHHHGDFKFKTYAPIAFRYFREMFGIRPDDYLYSLCNEPLIELSNPGASGSLFYVSSDDEFIIKTVQHKEAEFLQTLLPGYFMNLNQNMRTLLPKFYGLYCVQADGKNIRIVVMNNLLPRAVPMHLKFDLKGSTYKRRASPKERSKGVPTYKDLDFMQDMPEGILLENDHYTALSRTMQRDCRVLQSFKIMDYSLLVGIHILHRAGEEASTAVPDTQKKGQGQKPLYCTAIESIQGESKSKTSPQPYESMGGIPAFNSKGERLLVFIGIIDILQSYRLVKKLEHSWKALLHDGDTVSVHRPSFYADRFQKFMCSTVFRASQLKTLE
# notes: as for B1
# B9: zebrafish PIP5K1A kinase catalytic domain, F131A mutant (domain or fragment)
# chain: MASTGETTYKKTTSSALKGAIQLGITHSVGSLSQKPERDVLMQDFEVVESIFFPSQGSSSTPGHHHGDFKFKTYAPIAFRYFREMAGIRPDDYLYSLCNEPLIELSNPGASGSLFYVSSDDEFIIKTVQHKEAEFLQTLLPGYFMNLNQNMRTLLPKFYGLYCVQADGKNIRIVVMNNLLPRAVPMHLKFDLKGSTYKRRASPKERSKGVPTYKDLDFMQDMPEGILLENDHYTALSRTMQRDCRVLQSFKIMDYSLLVGIHILHRAGEEASTAVPDTQKKGQGQKPLYCTAIESIQGESKSKTSPQPYESMGGIPAFNSKGERLLVFIGIIDILQSYRLVKKLEHSWKALLHDGDTVSVHRPSFYADRFQKFMCSTVFRKSQLKTLE
# notes: as for B1
# B10: zebrafish PIP5K1A kinase catalytic domain, S78A mutant (domain or fragment)
# chain: MASTGETTYKKTTSSALKGAIQLGITHSVGSLAQKPERDVLMQDFEVVESIFFPSQGSSSTPGHHHGDFKFKTYAPIAFRYFREMFGIRPDDYLYSLCNEPLIELSNPGASGSLFYVSSDDEFIIKTVQHKEAEFLQTLLPGYFMNLNQNMRTLLPKFYGLYCVQADGKNIRIVVMNNLLPRAVPMHLKFDLKGSTYKRRASPKERSKGVPTYKDLDFMQDMPEGILLENDHYTALSRTMQRDCRVLQSFKIMDYSLLVGIHILHRAGEEASTAVPDTQKKGQGQKPLYCTAIESIQGESKSKTSPQPYESMGGIPAFNSKGERLLVFIGIIDILQSYRLVKKLEHSWKALLHDGDTVSVHRPSFYADRFQKFMCSTVFRKSQLKTLE
# notes: as for B1
# B11: zebrafish PIP5K1A kinase catalytic domain, triple D84R/L86A/V291A (DLV) mutant (domain or fragment)
# chain: MASTGETTYKKTTSSALKGAIQLGITHSVGSLSQKPERRVAMQDFEVVESIFFPSQGSSSTPGHHHGDFKFKTYAPIAFRYFREMFGIRPDDYLYSLCNEPLIELSNPGASGSLFYVSSDDEFIIKTVQHKEAEFLQTLLPGYFMNLNQNMRTLLPKFYGLYCVQADGKNIRIVVMNNLLPRAVPMHLKFDLKGSTYKRRASPKERSKGVPTYKDLDFMQDMPEGILLENDHYTALSRTMQRDCRALQSFKIMDYSLLVGIHILHRAGEEASTAVPDTQKKGQGQKPLYCTAIESIQGESKSKTSPQPYESMGGIPAFNSKGERLLVFIGIIDILQSYRLVKKLEHSWKALLHDGDTVSVHRPSFYADRFQKFMCSTVFRKSQLKTLE
# B12: zebrafish PIP5K1A kinase catalytic domain, Q194A mutant (domain or fragment)
# chain: MASTGETTYKKTTSSALKGAIQLGITHSVGSLSQKPERDVLMQDFEVVESIFFPSQGSSSTPGHHHGDFKFKTYAPIAFRYFREMFGIRPDDYLYSLCNEPLIELSNPGASGSLFYVSSDDEFIIKTVQHKEAEFLQTLLPGYFMNLNANMRTLLPKFYGLYCVQADGKNIRIVVMNNLLPRAVPMHLKFDLKGSTYKRRASPKERSKGVPTYKDLDFMQDMPEGILLENDHYTALSRTMQRDCRVLQSFKIMDYSLLVGIHILHRAGEEASTAVPDTQKKGQGQKPLYCTAIESIQGESKSKTSPQPYESMGGIPAFNSKGERLLVFIGIIDILQSYRLVKKLEHSWKALLHDGDTVSVHRPSFYADRFQKFMCSTVFRKSQLKTLE
# notes: kinase catalytic domain of zebrafish PIP5K1Aα, residues 49-431; C-terminal 'Leu-Glu' that precedes the His6 tag; also called Q194 mutant; source: E. coli BL21-CodonPlus(DE3)-RIL, purified in the same way as the wild-type protein; not shown: His6, C-terminal, kept
# What was measured:
# [1] = target: T1, GST-tagged DIX domain of mouse DVL1 …; assay: pull-down; GST-DIX (or GST) 0.5 μg and His-tagged PIP5K1 0.5 μg in 200 μl of 10 mM HEPES (pH 7.4), 150 mM NaCl, 0.2% Triton, 0.01% SDS, 3 mM dithiothreitol, 10% glycerol; 4 °C overnight; glutathione beads; western blotting; conditions: both partners purified
# [2] = target: T1, GST-tagged DIX domain of mouse DVL1 …; assay: cell-based or functional assay
# [3] = target: T2, Dix109; assay: ITC; conditions: chain shown with the change;
binder,measurement,setting,value
B1,reduction of the interaction against the wild type,[1],> 70%
B2,change in the interaction against the wild type,[1],≤ 20%
B3,change in the interaction against the wild type,[1],≤ 20%
B4,change in the interaction against the wild type,[1],≤ 20%
B5,reduction of the interaction against the wild type,[1],> 70%
B6,change in the interaction against the wild type,[1],≤ 20%
B7,change in the interaction against the wild type,[1],≤ 20%
B8,change in the interaction against the wild type,[1],≤ 20%
B9,change in the interaction against the wild type,[1],≤ 20%
B10,reduction of the interaction against the wild type,[1],> 70%
B11,fold activation of the lipid kinase activity by DIX,[2],> 30 fold
same,Kd,[3]; parent: 1.2 µM,800 nM
same,other: N,[3]; parent: 1.01 ± 0.09,0.98
same,other: -TΔS,[3]; parent: 120 ± 16 KJ mol-1,53.8 kcal/mol
same,dG,[3]; parent: -31.0 ± 3.5 KJ mol-1,-8.32 kcal/mol
same,other: ΔH,[3]; parent: -151 ± 19 KJ mol-1,-62.1 kcal/mol
B12,change in the interaction against the wild type,[1],≤ 20%
